For 1 molecule, EC50 results are on record in US20190085083A1 (BRIGHAM AND WOMEN S HOSPITAL, published 2019).

The test concerns the target T1, hKLRG1 (human KLRG1), plate-coated, Example 21 (human, UniProt Q96E93 60-195, limits assumed).
T1 construct: also called plate-coated KLRG1
T1 sequence (looked up): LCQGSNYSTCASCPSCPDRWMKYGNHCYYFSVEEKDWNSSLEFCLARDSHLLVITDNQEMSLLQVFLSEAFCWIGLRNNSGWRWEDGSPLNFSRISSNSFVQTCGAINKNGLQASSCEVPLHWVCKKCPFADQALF
The test can be described thus: ELISA, soluble hE-cadherin on plate-coated hKLRG1. An excerpt:
An ELISA based KLRG1/E-cadherin competition assay was developed to measure KLRG1/E-cadherin binding as well as neutralization of KLRG1/E-cadherin binding.
FIG. 23 presents the results of soluble hE-cadherin binding to plate-coated hKLRG1.

B1: soluble recombinant human E-cadherin (ligand)
chain: DWVIPPISCPENEKGPFPKNLVQIKSNKDKEGKVFYSITGQGADTPPVGVFIIERETGWLKVTEPLDRERIATYTLFSHAVSSNGNAVEDPMEILITVTDQNDNKPEFTQEVFKGSVMEGALPGTSVMEVTATDADDDVNTYNAAIAYTILSQDPELPDKNMFTINRNTGVISVVTTGLDRESFPTYTLVVQAADLQGEGLSTTATAVITVTDTNDNPPIFNPTTYKGQVPENEANVVITTLKVTDADAPNTPAWEAVYTILNDDGGQFVVTTNPVNNDGILKTAKGLDFEAKQQYILHVAVTNVVPFEVSLTTSTATVTVDVLDVNEAPIFVPPEKRVEVSEDFGVGQEITSYTAQEPDTFMEQKITYRIWRDTANWLEINPDTGAISTRAELDREDFEHVKNSTYTALIIATDNGSPVATGTGTLLLILSDVNDNAPIPEPRTIFFCERNPKPQVINIIDADLPPNTSPFTAELTHGASANWTIQYNDPTQESIILKPKMALEVGDYKINLKLMDNQNKDQVTTLEVSVCDCEGAAGVCRKAQPVEAGLQIPA
notes: also called hE-cadherin; soluble E-cadherin
In the case of B1, the response was half-maximal at 25 nM (EC50). In other words, the double-digit nanomolar range.
